This data set deals with the molecule itself. Briefly: cryo-EM structure.

“And” between values parts separate entries of the source, which are not always exact repeats. Identical values can stand only once.

B1: mouse seipin, recombinant, purified from Expi293 cells co-expressing Adig (natural protein, UniProt Q9Z2E9 1-383, looked up)
chain: MVNDPPVPALLWAQEVGHVLAGRARRLMLQFGVLFCTILLLLWVSVFLYGSFYYSYMPTVSHLSPVHFHYRTDCDSSTASLCSFPVANVSLAKSGRDRVLMYGQPYRVTLELELPESPVNQDLGMFLVTVSCYTRGGRIISTSSRSVMLHYRSQLLQVLDTLLFSSLLLFGFAEQKQLLEVELYSDYRENSYVPTTGAIIEIHSKRIQMYGAYLRIHAHFTGLRYLLYNFPMTCAFVGVASNFTFLSVIVLFSYMQWVWGAVWPRHRFSLQVNIRQRDNSHHGAPRRISRHQPGQESTQQSDVTEDGESPEDPSGTEGQLSEEEKPEKRPLNGEEEQEPEASDGSWEDAALLTEANPPTSASASALAPETLGSLRQRPTCSSS
By stoichiometry N is commonly meant a count of units in the complex or per binding partner. B1: the “stoichiometry N” value is 11 and 12.

The record behind these values is publication doi:10.1101/2024.07.25.605195 (bioRxiv, 2024).
